Experimental findings from patent US20120316071A1 (published 2012) are described below.

Assay [1] deals with T1, rHuman Erythropoietin R/Fc Chimera, CF (R&D Systems Cat#963-ER) (human, UniProt P19235 25-250).
T1 construct: Bought recombinant protein; also called EPO R/Fc; Epo R; Fc part of the bought chimera not given
T1 sequence (looked up): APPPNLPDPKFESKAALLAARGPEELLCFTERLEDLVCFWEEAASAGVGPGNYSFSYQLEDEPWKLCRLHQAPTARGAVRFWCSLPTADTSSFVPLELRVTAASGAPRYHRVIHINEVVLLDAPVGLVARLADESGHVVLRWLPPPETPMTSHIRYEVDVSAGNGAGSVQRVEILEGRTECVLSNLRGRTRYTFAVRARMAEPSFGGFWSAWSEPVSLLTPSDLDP
Briefly: MSD multispot ECL, antigen spotted on plate; Fab 0.1275 uM; blank spot 530.

Assay [2] addresses T2, Recombinant Human DLL4 (R&D Systems Cat#1506-D4/CF) (human, UniProt Q9NR61 27-524).
T2 construct: Bought recombinant protein; also called delta-like protein 4; rHuman DLL4
The assay is described as above.

Assay [3] concerns the target T3, rHuman Notch-1/Fc Chimera, CF (R&D Systems Cat#3647-TK) (human, UniProt P46531 19-526).
T3 construct: Bought recombinant protein; Fc part of the bought chimera not given
The assay is described as above.

In assay [4] the target is T4, rHuman EGF R/Fc Chimera, CF (R&D Systems Cat#344-ER) (human, UniProt P00533 25-645).
T4 construct: Bought recombinant protein; also called epidermal growth factor receptor; Fc part of the bought chimera not given
The description is as above.

For assay [5], the target named is T5, rHuman P-Cadherin/Fc Chimera, CF (R&D Systems Cat#861-PC) (human, UniProt P22223 108-654).
T5 construct: Bought recombinant protein; Fc part of the bought chimera not given
The description is as above.

In assay [6] the target is T6, rHuman ErbB2/Fc Chimera, CF (R&D Systems Cat#1129-ER) (human, UniProt P04626 23-652).
T6 construct: Bought recombinant protein; also called human epidermal growth factor 2 receptor; Fc part of the bought chimera not given
The description is as above.

Assay [7] addresses T7, rHuman IGF-1 sR, CF (R&D Systems Cat#391-GR) (human, UniProt P08069 31-932).
T7 construct: Bought recombinant soluble receptor; also called insulin-like growth factor-1 soluble receptor
The assay is described as above.

Assay [8] concerns the target T8, rHuman HGF R/c-MET/Fc Chimera, CF (R&D Systems Cat#358-MT/CF) (human, UniProt P08581 25-932).
T8 construct: Bought recombinant protein; also called HGF R/Fc; hepatocyte growth factor receptor; Fc part of the bought chimera not given
The assay is described as above.

Assay [9] deals with T9, rHuman CD44/Fc Chimera, CF (R&D Systems Cat#3660-CD) (human, UniProt P16070 21-220).
T9 construct: Bought recombinant protein; Fc part of the bought chimera not given
Described as above.

The target of assay [10] is T10, rHuman CD44/Fc Chimera, CF (R&D Systems Cat#3660-CD) (human, UniProt P16070 21-220).
T10 construct: Bought reagent; Fc part of the bought chimera not given
Briefly: ECL Multispot (MSD) assay, antigen spotted on plate, 10 nM Fab; blank spot of this row 344.

Assay [11] addresses T11, rHuman Erythropoietin R/Fc Chimera, CF (R&D Systems Cat#963-ER) (human, UniProt P19235 25-250).
T11 construct: Bought reagent; also called EPO R; EPO R/Fc; Fc part of the bought chimera not given
T11 sequence (looked up): T1 sequence (looked up)
Described as above.

Assay [12] has as its target T12, rHuman P-Cadherin/Fc Chimera, CF (R&D Systems Cat#861-PC) (human, UniProt P22223 108-654).
T12 construct: Bought reagent; Fc part of the bought chimera not given
Described as above.

The target in assay [13] is T13, rHuman Notch-1/Fc Chimera, CF (R&D Systems Cat#3647-TK) (human, UniProt P46531 19-526).
T13 construct: Bought reagent; Fc part of the bought chimera not given
The description is as above.

Assay [14] has as its target T14, rHuman EGF R/Fc Chimera, CF (R&D Systems Cat#344-ER) (human, UniProt P00533 25-645).
T14 construct: Bought reagent; also called epidermal growth factor receptor; Fc part of the bought chimera not given
The description is as above.

Assay [15] deals with T15, rHuman ErbB2/Fc Chimera, CF (R&D Systems Cat#1129-ER) (human, UniProt P04626 23-652).
T15 construct: Bought reagent; also called human epidermal growth factor 2 receptor; Fc part of the bought chimera not given
Described as above.

Assay [16] has as its target T16, rHuman IGF-1 sR, CF (R&D Systems Cat#391-GR) (human, UniProt P08069 31-932).
T16 construct: Bought soluble receptor; The column head prints only 'IGF-1'; also called insulin-like growth factor-1 soluble receptor
Described as above.

Assay [17] has as its target T17, rHuman EGF R/Fc Chimera, CF (R&D Systems Cat#344-ER) (human, UniProt P00533 25-645).
T17 construct: Bought recombinant protein; Fc part of the bought chimera not given
Briefly: ECL Multispot (MSD), antigen spotted; Fab 5 (µM); blank 211.

Assay [18] deals with T18, rHuman IGF-1 sR, CF (R&D Systems Cat#391-GR) (human, UniProt P08069 31-932).
T18 construct: Bought recombinant soluble receptor; also called insulin-like growth factor-1 soluble receptor
Described as above.

Assay [19] concerns the target T19, Recombinant Human DLL4 (R&D Systems Cat#1506-D4/CF) (human, UniProt Q9NR61 27-529).
T19 construct: Bought recombinant protein; also called delta-like protein 4; rHuman DLL4
Described as above.

T8 sequence (P08581 25-932, change not shown): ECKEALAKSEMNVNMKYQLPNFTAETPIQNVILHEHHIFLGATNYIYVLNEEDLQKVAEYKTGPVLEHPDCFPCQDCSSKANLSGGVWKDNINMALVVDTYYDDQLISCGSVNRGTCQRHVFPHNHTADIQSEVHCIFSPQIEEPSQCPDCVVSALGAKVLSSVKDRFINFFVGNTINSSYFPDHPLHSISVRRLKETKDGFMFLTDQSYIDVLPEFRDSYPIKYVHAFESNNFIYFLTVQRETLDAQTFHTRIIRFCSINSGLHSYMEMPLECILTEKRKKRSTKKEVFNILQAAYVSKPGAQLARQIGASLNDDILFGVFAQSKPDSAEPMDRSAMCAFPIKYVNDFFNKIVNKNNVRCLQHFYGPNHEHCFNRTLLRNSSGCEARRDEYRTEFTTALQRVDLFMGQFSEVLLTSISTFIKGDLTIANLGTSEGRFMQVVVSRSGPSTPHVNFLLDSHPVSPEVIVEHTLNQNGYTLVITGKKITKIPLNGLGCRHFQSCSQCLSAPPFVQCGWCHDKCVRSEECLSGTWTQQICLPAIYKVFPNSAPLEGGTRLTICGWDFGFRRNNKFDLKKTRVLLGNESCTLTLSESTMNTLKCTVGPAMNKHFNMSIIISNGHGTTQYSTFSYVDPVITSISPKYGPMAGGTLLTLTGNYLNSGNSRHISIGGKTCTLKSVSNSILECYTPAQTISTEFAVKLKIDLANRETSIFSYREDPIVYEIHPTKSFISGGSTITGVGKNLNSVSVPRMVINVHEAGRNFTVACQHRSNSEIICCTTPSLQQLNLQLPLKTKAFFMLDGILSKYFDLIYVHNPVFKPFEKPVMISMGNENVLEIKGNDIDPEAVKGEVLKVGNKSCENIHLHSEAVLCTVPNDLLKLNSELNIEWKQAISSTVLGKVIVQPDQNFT

B1: Fab VH4-34_IGHD7-27*01_IGHJ4*01 & L5_IGKJ1*01 (Fab, V domains shown)
VH: QVQLQQWGAGLLKPSETLSLTCAVYGGSFSGYYWSWIRQPPGKGLEWIGEINHSGSTNYNPSLKSRVTISVDTSKNQFSLKLSSVTAADTAVYYCARANWGDYFDYWGQGTLVTVSS
VL: DIQMTQSPSSVSASVGDRVTITCRASQGISSWLAWYQQKPGKAPKLLIYAASSLQSGVPSRFSGSGSGTDFTLTISSLQPEDFATYYCQQANSFPPWTFGQGTKVEIKR
notes: Germline library Fab expressed in E. coli; VH was cloned into Plasmid A, which adds CH1 with His6 and Flag tags
As to B1, the ECL signal in assay [1] came to 1070; in assay [2], 2380; in assay [3] it was 1500; in [4], 1060; in assay [5], 957; in [6], 857. In addition, the ECL signal in assay [7] was determined as 1040; in assay [8] it was 853; in [9] it was 926.

B2: Fab VH1-46_IGHD6-6*01_IGHJ1*01 S102A/S103P/S104F (APF) & L6_IGKJ1*01 (Fab, V domains shown)
VH: QVQLVQSGAEVKKPGASVKVSCKASGYTFTSYYMHWVRQAPGQGLEWMGIINPSGGSTSYAQKFQGRVTMTRDTSTSTVYMELSSLRSEDTAVYYCAREEYAPFSAEYFQHWGQGTLVTVSS
VL: not shown
notes: Tested as a Fab made in E. coli; also called H:APF & L:wt; APF triple mutant
As for B2, the ECL signal in [10] worked out at 417; in [11], 389; in [12], 293; in assay [13] it was 363; in [14], 371; in assay [15] it was 356. Moreover, the ECL signal in assay [16] amounted to 293.

B3: Fab VH1-46_IGHD6-6*01_IGHJ1*01 S102A/S103P/S104F (APF) & L6_IGKJ1*01 (Fab, V domains shown)
VH: B2 VH
VL: not shown
notes: Tested as a Fab made in E. coli: VH cloned in Plasmid A (CH1 constant region, His6 and Flag tags), VL in Plasmid C (kappa constant region); also called H:APF & L:wt; APF triple mutant
Consider B3, for which the ECL signal in [17] came out at 356; in [18] it was 300; in assay [19], 54900.
